According to patent US20120027722A1 (MEDICAL RESEARCH COUNCIL, published 2012):
Changes are numbered by the printed parent chain. Where two headings read alike, the source gives them in different places. No end group written: not given here.

Tests used:
Peptide D3 [1] = biological target: T1, Peptide D3; assay: peptide ELISA: biotinylated peptide on streptavidin plate, COS7 supernatant, anti-human kappa HRP, OD 655 nm
T1 construct: member of the group m28

AP33 mimotope peptide H6 [2] = biological target: T2, AP33 mimotope peptide H6; assay: as above
T2 construct: captured on streptavidin plates; also called mimotope H6; H6 peptide
T2 peptide: VELRNLGGTWRPGSGK-biotin

E2 peptide B1 [3] = biological target: T3, E2 peptide B1 (Hepatitis C virus, genotype 2b (Table 5)); assay: as above
AP33 mimotope peptide H6 [4] = biological target: T2, AP33 mimotope peptide H6; assay: as above
[5] = biological target: T4, HCV E1E2 heterodimer expressed on the surface of 293T cells (Hepatitis C virus (isolate )); assay: Scatchard analysis, 125I-Fab versus unlabeled Fab on E1E2-transfected 293T cells
T4 construct: whole, on cells; also called cell surface expressed E2; E1E2 Scatchard

[6] = biological target: T5, soluble HCV E2 truncated at amino acid 661 (sE2661), His-tagged (Hepatitis C virus (isolate )); assay: SPR (BIAcore), sE2
T5 construct: extracellular domain; also called soluble E2

Peptide D3 [7] = biological target: T1, Peptide D3; assay: peptide ELISA: biotinylated peptide on streptavidin plate, COS7 supernatant, anti-human kappa HRP, OD 655 nm; remark: listed apart in the source
AP33 mimotope peptide H6 [8] = biological target: T2, AP33 mimotope peptide H6; assay: as above
E2 peptide C2 [9] = biological target: T6, E2 peptide C2 (Hepatitis C virus, genotype 1a (Table 5), not fully specified (residue 16, C-terminus)); assay: as above
T6 peptide: QLINTNGSWHVNGSGK

E2 peptide B1 [10] = biological target: T3, E2 peptide B1; assay: as above; remark: listed apart in the source
Peptide D3 [11] = biological target: T1, Peptide D3; assay: as above; remark: listed apart in the source
AP33 mimotope peptide H6 [12] = biological target: T2, AP33 mimotope peptide H6; assay: as above
E2 peptide C2 [13] = biological target: T6, E2 peptide C2; assay: as above
E2 peptide B1 [14] = biological target: T3, E2 peptide B1; assay: as above; remark: listed apart in the source
[15] = biological target: HCV E1E2 glycoproteins, isolate 4.21.16 (on HCVpp) (Hepatitis C virus genotype 4 (4.21.16)); assay: cell-based or functional assay
[16] = biological target: HCV E1E2 glycoproteins, isolate 2A2.4 (on HCVpp) (Hepatitis C virus genotype 2 (2A2.4)); assay: cell-based or functional assay
[17] = biological target: HCV E1E2 glycoproteins, isolate 2B1.1 (on HCVpp) (Hepatitis C virus genotype 2 (2B1.1)); assay: cell-based or functional assay
[18] = biological target: HCV E1E2 glycoproteins, genotype 2a isolate JFH1 (on HCVpp) (Hepatitis C virus genotype 2a (JFH1), UniProt Q99IB8 192-383; Q99IB8 384-750); assay: cell-based or functional assay
[19] = biological target: HCV E1E2 glycoproteins, genotype 3a isolate F4/2-35 (on HCVpp) (Hepatitis C virus genotype 3a (F4/2-35)); assay: cell-based or functional assay
[20] = biological target: HCV E1E2 glycoproteins, isolate 1A20.8 (on HCVpp) (Hepatitis C virus genotype 1 (1A20.8)); assay: cell-based or functional assay
[21] = biological target: HCV E1E2 glycoproteins, isolate 1B5.23 (on HCVpp) (Hepatitis C virus genotype 1 (1B5.23)); assay: cell-based or functional assay
[22] = biological target: HCV E1E2 glycoproteins, isolate 6.5.8 (on HCVpp) (Hepatitis C virus genotype 6 (6.5.8)); assay: cell-based or functional assay
[23] = biological target: HCV E1E2 glycoproteins, isolate 5.15.11 (on HCVpp) (Hepatitis C virus genotype 5 (5.15.11)); assay: cell-based or functional assay
[24] = biological target: T5, soluble HCV E2 truncated at amino acid …; assay: SPR (BIAcore A100), antibody captured on anti-human Fc chip, sE2 injected 1.56-50 nM, 1:1 Langmuir fit
[25] = biological target: T4, HCV E1E2 heterodimer expressed on the …; assay: Scatchard analysis, 125I-antibody versus unlabeled antibody on E1E2-transfected 293T cells
[26] = biological target: HCV E1E2 glycoproteins, genotype 2a (J6) (Hepatitis C virus genotype 2a (J6)); assay: cell-based or functional assay
[27] = biological target: HCV E1E2 glycoproteins, genotype 1b (Con1) (Hepatitis C virus genotype 1b (Con1), UniProt Q9WMX2 192-383; Q9WMX2 384-746); assay: cell-based or functional assay
Peptide D3 [28] = biological target: T1, Peptide D3; assay: peptide ELISA: biotinylated peptide on streptavidin plate, COS7 supernatant, anti-human kappa HRP, OD 655 nm; remark: listed apart in the source
AP33 mimotope peptide H6 [29] = biological target: T2, AP33 mimotope peptide H6; assay: as above
E2 peptide B1 [30] = biological target: T3, E2 peptide B1; assay: as above; remark: listed apart in the source
Peptide D3 [31] = biological target: T1, Peptide D3; assay: as above; remark: listed apart in the source
AP33 mimotope peptide H6 [32] = biological target: T2, AP33 mimotope peptide H6; assay: as above
E2 peptide C2 [33] = biological target: T6, E2 peptide C2; assay: as above
E2 peptide B1 [34] = biological target: T3, E2 peptide B1; assay: as above; remark: listed apart in the source

B1: humanized AP33 antibody RHb-h/RK2bc (antibody, V domains shown)
VH: QVQLQESGPGLVKPSETLSLTCTVSGDSITSGYWNWIRQPPGRALEYMGYISYSGSTYYNLSLRSRITISRDTSKNQYSLRLSSVTAADTAMYYCALITTTTYAMDYWGQGTTVTVS
VL: EIVLTQSPSSLSASVGDRVTITCRASESVDGYGNSFLHWFQQKPGKAPKLLIYLASNLNSGVPSRFSGSGSRTDFTLTISSLQPEDFATYYCQQNNVDPWTFGQGTKLEIK
notes: also called RHbcdefgh/RK2bc
- EC50 (read off the curve) (Peptide D3 [1]): ~0.05 µg/mL
- EC50 (read off the curve) (AP33 mimotope peptide H6 [2]): ~0.04 µg/mL
- binding result (E2 peptide B1 [3]): no binding (tested: about 1400 ng/ml)
- EC50 (read off the curve) (AP33 mimotope peptide H6 [4]): ~0.03 µg/mL

B2: RH-C/RK2b Fab (Fab, V domains shown)
VH: QVQLQESGPGLVKPSETLSLTCTVSGDSITSGYWNWIRQPPGRALEWMGYISYSGSTYYNLSLRSRITISRDTSKNQYSLRLSSVTAADTAMYYCALITTTTYAMDYWGQGTTVTVSS
VL: B1 VL with R72G
notes: also called Fab fragment of RH-C/RK2b
- Kd [5]: 50 nM
- Kd [6]: ~0.5 nM

B3: RHb-h/Vl (humanized heavy chain RHb-h with chimeric light chain) (antibody, V domains shown)
VH: B1 VH
VL: NIVLTQSPVSLAVSLGQRATISCRASESVDGYGNSFLHWFQQKPGQPPKLLIYLASNLNSGVPARFSGSGSRTDFTLTIDPVEADDAATYYCQQNNVDPWTFGGGTKLEIK
notes: also called RHb-h/V1
- EC50 (read off the curve) (Peptide D3 [7]): ~0.02 µg/mL
- EC50 (read off the curve) (AP33 mimotope peptide H6 [8]): ~0.02 µg/mL
- binding result (E2 peptide C2 [9]): binds
- binding result (E2 peptide B1 [10]): no binding (tested: about 500 ng/ml)

B4: humanized AP33 antibody RH-C/RK2bc (antibody, V domains shown)
VH: B2 VH
VL: B1 VL
- EC50 (read off the curve) (Peptide D3 [11]): ~0.05 µg/mL
- EC50 (read off the curve) (AP33 mimotope peptide H6 [12]): ~0.04 µg/mL
- binding result (E2 peptide C2 [13]): binds
- binding result (E2 peptide B1 [14]): no binding (tested: about 2200 ng/ml)

B5: humanized AP33 antibody RH-C/RK2b (antibody, V domains shown)
VH: B2 VH
VL: B1 VL with R72G
notes: also called RH-C antibody
- IC50 of HCVpp infection (Huh-7, luciferase) [15]: < 0.41 µg/mL
- IC90 of HCVpp infection (Huh-7, luciferase) [15]: 0.92 µg/mL
- IC50 of HCVpp infection (Huh-7, luciferase) [16]: 0.51 µg/mL
- IC90 of HCVpp infection (Huh-7, luciferase) [16]: 6 µg/mL
- IC50 of HCVpp infection (Huh-7, luciferase) [17]: 3 µg/mL
- IC90 of HCVpp infection (Huh-7, luciferase) [17]: > 15 µg/mL
- IC50 of HCVpp infection (Huh-7, luciferase) [18]: 0.64 µg/mL
- IC90 of HCVpp infection (Huh-7, luciferase) [18]: 7 µg/mL
- IC50 of HCVpp infection (Huh-7, luciferase) [19]: < 0.41 µg/mL
- IC90 of HCVpp infection (Huh-7, luciferase) [19]: 2.15 µg/mL
- IC50 of HCVpp infection (Huh-7, luciferase) [20]: 1.6 µg/mL
- IC90 of HCVpp infection (Huh-7, luciferase) [20]: 15 µg/mL
- IC50 of HCVpp infection (Huh-7, luciferase) [21]: 0.9 µg/mL
- IC90 of HCVpp infection (Huh-7, luciferase) [21]: 8.3 µg/mL
- IC50 of HCVpp infection (Huh-7, luciferase) [22]: < 0.41 µg/mL
- IC90 of HCVpp infection (Huh-7, luciferase) [22]: 1.8 µg/mL
- IC50 of HCVpp infection (Huh-7, luciferase) [23]: 0.053 µg/mL
- IC90 of HCVpp infection (Huh-7, luciferase) [23]: 0.82 µg/mL
- Kd [24]: 3.8 nM
- Kd [25]: 5 nM
- EC50, neutralization of J6 HCVpp entry (Huh-7.5, luciferase) [26]: 0.793 µg/mL
- neutralization of J6 HCVcc infection, fold better than AP33 [26]: ≥ 4.7 fold
- EC50, neutralization of Con1 HCVpp entry (Huh-7.5, luciferase) [27]: 0.511 µg/mL

B6: humanized AP33 antibody RH-H/RK2bc (antibody, V domains shown)
VH: B1 VH with L97R
VL: B1 VL
- EC50 (read off the curve) (Peptide D3 [28]): ~0.04 µg/mL
- EC50 (read off the curve) (AP33 mimotope peptide H6 [29]): ~0.03 µg/mL
- binding result (E2 peptide B1 [30]): no binding (tested: about 1000 ng/ml)

B7: AP33 RH-B/RK2bc (antibody, V domains shown)
VH: B2 VH with T30S, W47Y
VL: B1 VL
notes: COS7 supernatant
- binding result (Peptide D3 [31]): binds
- binding result (AP33 mimotope peptide H6 [32]): binds
- binding result (E2 peptide C2 [33]): binds
- binding result (E2 peptide B1 [34]): no binding (tested: about 800 ng/ml)
